Experiment [1] has as its target T1, MHC-related protein 1 (MR1), hpMR1 (Homo sapiens, UniProt Q95460). Description: DSF of refolded complex. In kind it is binding.
Experiment [2] deals with TAPBPR^WT (luminal domain of TAPBPR C94S). Description: SPR. (In general: SPR reads the build-up and loss of mass on a sensor chip optically.)
Experiment [3] concerns the target T1, MHC-related protein 1 (MR1), hpMR1. Nature of the experiment: 1D […] NMR titration. Type of experiment: binding.

These results are taken from publication PMC9703140 (Nature chemical biology, 2022).

Take `O=Cc1c(O)ccc2ccccc12` [2OH1NA, 2-hydroxy-1-naphthaldehyde]: the “DSF of refolded complex (Tm 55.3 °C); NMR methyl HMQC” value in experiment [1] came to 55.3 °C. “Ac-6-FP loaded hMR1/hβ2m (wild type) (from UniProt P61769 21-119) (complex)”: in experiment [2], the equilibrium dissociation constant (Kd) – broadly, the concentration at which binding is half-saturated – was 100 µM.

Regarding “UV-irradiated HLA-A*02:01/hβ2m (empty, peptide-deficient) (from UniProt P61769 21-119) (complex)”, in experiment [2], the Kd turned out to be 0.082 µM. “Ac-6-FP–hpMR1–bβ2m (from UniProt Q95460 23-290; P01888 21-118) (complex)” had a Kd in experiment [2] of 104 µM. On the same count and under the same terms, the result for “TAX9/HLA-A*02:01/hβ2m (from UniProt P61769 21-119) (peptide-MHC)” reads 18.5 µM. In turn, `O=C(O)Cc1ccccc1Nc1c(Cl)cc(F)cc1Cl` [19F-DCF, 2-(2-((2,6-dichloro-4-fluorophenyl)amino)phenyl)acetic acid] yielded a Kd in experiment [3] of 36.1 µM. This lies in the double-digit micromolar range. As for “Ac-6-FP loaded hMR1 C262S/hβ2m (from UniProt P61769 21-119) (complex)”, in experiment [2], the Kd amounted to 100 µM.
